Measurements taken from IntAct's records for PubMed 10814541.

B1: Thioredoxin (Homo sapiens), P10599 (parent)
chain: MVKQIESKTAFQEALDAAGDKLVVVDFSATWCGPCKMIKPFFHSLSEKYSNVIFLEVDVDDCQDVASECEVKCMPTFQFFKKGQKVGEFSGANKEKLEATINELV
partner: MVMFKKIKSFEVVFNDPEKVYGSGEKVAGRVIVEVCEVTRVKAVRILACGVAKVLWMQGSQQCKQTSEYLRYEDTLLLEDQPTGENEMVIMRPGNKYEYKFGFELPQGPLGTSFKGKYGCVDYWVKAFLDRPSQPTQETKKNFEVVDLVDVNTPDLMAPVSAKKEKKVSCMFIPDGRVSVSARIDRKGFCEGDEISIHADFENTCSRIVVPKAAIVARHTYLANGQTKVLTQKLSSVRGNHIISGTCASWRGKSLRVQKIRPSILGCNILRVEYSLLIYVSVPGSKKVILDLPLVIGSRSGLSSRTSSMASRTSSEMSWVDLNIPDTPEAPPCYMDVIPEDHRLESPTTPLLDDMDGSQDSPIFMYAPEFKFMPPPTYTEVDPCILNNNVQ

Variants of: B1
Conditions: with txnip_human TXNIP

effect of a mutation on the interaction | Variant
decreasing interaction | C32S;C35S
